{"source": "patent US20040191821", "target": "MuA transposase (residues 77-663) (Bacteriophage Mu) (UniProt P07636)", "sequence (P07636 77-663)": "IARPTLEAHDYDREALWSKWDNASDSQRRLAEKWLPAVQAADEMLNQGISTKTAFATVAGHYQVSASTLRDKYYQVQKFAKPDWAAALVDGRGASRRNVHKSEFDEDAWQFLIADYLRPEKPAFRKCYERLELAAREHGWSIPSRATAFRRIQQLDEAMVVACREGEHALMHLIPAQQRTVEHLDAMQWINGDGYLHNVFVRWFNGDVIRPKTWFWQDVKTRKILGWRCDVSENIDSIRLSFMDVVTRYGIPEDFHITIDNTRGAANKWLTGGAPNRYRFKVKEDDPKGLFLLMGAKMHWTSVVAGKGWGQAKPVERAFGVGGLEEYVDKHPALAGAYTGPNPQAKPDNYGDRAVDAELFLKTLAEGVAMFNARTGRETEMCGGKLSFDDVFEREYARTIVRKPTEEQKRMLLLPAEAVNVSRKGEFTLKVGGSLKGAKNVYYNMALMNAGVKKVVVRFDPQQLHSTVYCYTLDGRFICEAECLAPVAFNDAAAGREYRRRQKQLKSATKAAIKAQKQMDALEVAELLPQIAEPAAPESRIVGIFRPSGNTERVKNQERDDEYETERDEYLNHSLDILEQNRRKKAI", "details": "91/92 nt products; mismatch at center of 5 bp target; 10 mM MgCl2, 30 C; scale: % of strand transfer products at mismatch"}
{"sequence": "CGTTCATTAGCACAATCACAGAAGACTAGAATACAACCGCACATAAGATCAGAAGTTAACTAGCACTAGTACTTGC (double strand) [single mismatch target 76 bp]", "values": [{"measurement": "activity", "value": 90}]}
